Measured values from US20020065398A1 (CENTRO DE INMUNOLOGIA MOLECULAR, published 2002).
Changes are numbered by the printed parent chain.

What was measured:
[1] = biological target: T1, human epidermal growth factor receptor (human, UniProt P00533 25-1210); experiment: RRA, 125I-EGF competition on human placenta microsomal fraction
T1 construct: whole, on cells; also called EGF-R; EGF receptor

[2] = biological target: T1, human epidermal growth factor receptor; experiment: RRA, concentrated supernatants of transfected NSO cells

B1: first version of humanized R3 antibody (R3-huVH(a) with R3-huVK) (antibody, human IgG1, V domains shown)
VH: QVQLQQSGAEVKKPGSSVKVSCKASGYTFTNYYIYWVRQAPGQGLEWIGGINPTSGGSNFNEKFKTRVTITVDESTNTAYMELSSLRSEDTAFYFCARQGLWFDSDGRGFDFWGQGSTVTVSS
VL: DIQMTQSPSSLSASVGDRVTITCRSSQNIVHSNGNTYLDWYQQTPGKAPKLLIYKVSNRFSGVPSRFSGSGSGTDFTFTISSLQPEDIATYYCFQYSHVPWTFGQGTKLQITR
notes: R3 CDRs grafted on human Eu (VH) and REI (VK) frameworks; human IgG1 / kappa constant regions; also called humanized (1) R3; version 1
B1: no binding [1].

B2: hybrid humanized R3VH/murine R3VK (antibody, V domains shown)
VH: B1 VH
VL: DVLMTQIPLSLPVSLGDGASISCRSSQNIVHSNGNTYLDWYLQKPGQSPNLLIYKVSNRFSGVPDRFRGSGSGTDFTLKISRVEAEDLGVYYCFQYSHVPWTFGGGTKLEIK
notes: Human gamma-1 and kappa constant regions; tested as concentrated supernatant of transfected NSO cells; The hybrid was made before the further VH versions, so its humanized VH is read as the first version
B2: no binding [2].

B3: reshaped R3VH-K66A67 with huVKR3 (antibody, V domains shown)
VH: B1 VH with R67K, V68A
VL: DIQMTQSPSSLSASVGDRVTITCRSSQNIVHSNGNTYLDWYQQTPGKAPKLLIYKVSNRFSGVPSRFSGSGSGTDFTFTISSLQPEDIATYYCFQYSHVPWTFGQGTKLQIT
notes: Human IgG1 / kappa; also called 66 and 67 changes
B3: no binding [1].
